Test results published in paper PMC10397247.

How the values were obtained:
[1] = target: T1, 4H2290-AA; experiment: two-hybrid library CCmax;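 further: natural log of median RNA to DNA barcode read ratio; higher means stronger binding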
T1 chain: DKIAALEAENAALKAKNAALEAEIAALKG

[2] = target: T2, 4H2447-AA; experiment: two-hybrid library CCmax; details: mean of both orientations;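 further: natural log of median RNA to DNA barcode read ratio; higher means stronger binding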
T2 chain: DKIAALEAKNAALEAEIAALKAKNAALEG

[3] = target: T3, 4H2458-AA; experiment: two-hybrid library CCmax; details: mean of both orientations;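 further: natural log of median RNA to DNA barcode read ratio; higher means stronger binding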
T3 chain: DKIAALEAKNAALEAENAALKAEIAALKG

[4] = target: T4, 4H3330-AA; experiment: two-hybrid library CCmax; details: mean of both orientations;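 further: natural log of median RNA to DNA barcode read ratio; higher means stronger binding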
T4 chain: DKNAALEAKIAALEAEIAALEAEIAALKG

[5] = target: T5, 4H716-AA; experiment: two-hybrid library CCmax; details: mean of both orientations
T5 chain: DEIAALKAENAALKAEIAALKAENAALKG

[6] = target: T6, 4H733-AA; experiment: two-hybrid library CCmax; details: mean of both orientations
T6 chain: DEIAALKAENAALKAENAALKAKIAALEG

[7] = target: T7, 4H807-AA; experiment: two-hybrid library CCmax; details: mean of both orientations
T7 chain: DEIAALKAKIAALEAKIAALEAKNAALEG

[8] = target: T8, APC1015-AA; experiment: two-hybrid library CCmax; details: mean of both orientations
T8 chain: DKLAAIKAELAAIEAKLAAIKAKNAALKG

[9] = target: T9, APC1434-AA; experiment: two-hybrid library CCmax; details: mean of both orientations
T9 chain: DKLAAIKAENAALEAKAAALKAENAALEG

[10] = target: T10, APC2237-AA; experiment: two-hybrid library CCmax; details: mean of both orientations
T10 chain: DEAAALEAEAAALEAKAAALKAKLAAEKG

[11] = target: T11, APC232-AA; experiment: two-hybrid library CCmax; details: mean of both orientations
T11 chain: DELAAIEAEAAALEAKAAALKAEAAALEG

[12] = target: T12, APC2405-AA; experiment: two-hybrid library CCmax; details: mean of both orientations
T12 chain: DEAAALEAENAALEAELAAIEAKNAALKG

[13] = target: T13, APC3645-AA; experiment: two-hybrid library CCmax; details: mean of both orientations
T13 chain: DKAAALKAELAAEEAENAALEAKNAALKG

[14] = target: T14, APC4011-AA; experiment: two-hybrid library CCmax; details: mean of both orientations
T14 chain: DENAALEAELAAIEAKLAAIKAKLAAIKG

[15] = target: T15, APC4264-AA; experiment: two-hybrid library CCmax; details: mean of both orientations
T15 chain: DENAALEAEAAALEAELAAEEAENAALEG

[16] = target: T16, APC4436-AA; experiment: two-hybrid library CCmax; details: mean of both orientations
T16 chain: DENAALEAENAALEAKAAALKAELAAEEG

[17] = target: T17, APC5383-AA; experiment: two-hybrid library CCmax; details: mean of both orientations
T17 chain: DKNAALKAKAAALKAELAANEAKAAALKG

[18] = target: T18, APC6108-AA; experiment: two-hybrid library CCmax; details: mean of both orientations
T18 chain: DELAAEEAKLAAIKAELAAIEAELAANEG

[19] = target: T19, APC7099-AA; experiment: two-hybrid library CCmax; details: mean of both orientations
T19 chain: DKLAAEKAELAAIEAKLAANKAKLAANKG

[20] = target: T20, APC8191-AA; experiment: two-hybrid library CCmax; details: mean of both orientations
T20 chain: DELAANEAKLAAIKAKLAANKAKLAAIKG

[21] = target: T21, APC8910-AA; experiment: two-hybrid library CCmax; details: mean of both orientations
T21 chain: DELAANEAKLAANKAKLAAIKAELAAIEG

[22] = target: T22, APC9096-AA; experiment: two-hybrid library CCmax; details: mean of both orientations
T22 chain: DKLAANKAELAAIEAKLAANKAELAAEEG

[23] = target: T23, APC9319-AA; experiment: two-hybrid library CCmax; details: mean of both orientations
T23 chain: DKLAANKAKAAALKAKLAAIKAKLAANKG

[24] = target: T24, 4H1406-bN; experiment: two-hybrid library CCNG1
T24 chain: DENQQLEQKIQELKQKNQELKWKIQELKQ

[25] = target: T25, 4H2586-bA; experiment: two-hybrid library CCNG1
T25 chain: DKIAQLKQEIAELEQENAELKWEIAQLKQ

[26] = target: T26, 4H3592-bN; experiment: two-hybrid library CCNG1
T26 chain: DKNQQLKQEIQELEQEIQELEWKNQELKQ

[27] = target: T27, 4H3601-bN; experiment: two-hybrid library CCNG1
T27 chain: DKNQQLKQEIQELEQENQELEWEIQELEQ

[28] = target: T28, 4H3907-bN; experiment: two-hybrid library CCNG1
T28 chain: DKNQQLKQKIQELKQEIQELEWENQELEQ

[29] = target: T29, 4H4038-bN; experiment: two-hybrid library CCNG1
T29 chain: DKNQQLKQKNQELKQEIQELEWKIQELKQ

[30] = target: T30, 4H477-bN; experiment: two-hybrid library CCNG1
T30 chain: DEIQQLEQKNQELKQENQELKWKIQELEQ

[31] = target: T31, 4H932-bA; experiment: two-hybrid library CCNG1
T31 chain: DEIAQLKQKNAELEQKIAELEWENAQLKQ

[32] = target: T32, O14-bS; experiment: two-hybrid library CCNG1
T32 chain: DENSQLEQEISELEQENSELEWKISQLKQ

[33] = target: T33, O16-bS; experiment: two-hybrid library CCNG1
T33 chain: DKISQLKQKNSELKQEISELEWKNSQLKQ

[34] = target: T34, O2-bS; experiment: two-hybrid library CCNG1
T34 chain: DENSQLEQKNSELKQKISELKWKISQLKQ

[35] = target: T35, O3-bS; experiment: two-hybrid library CCNG1
T35 chain: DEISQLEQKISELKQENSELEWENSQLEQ

[36] = target: T36, O4-bS; experiment: two-hybrid library CCNG1
T36 chain: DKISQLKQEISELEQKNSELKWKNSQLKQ

[37] = target: T37, O5-bS; experiment: two-hybrid library CCNG1
T37 chain: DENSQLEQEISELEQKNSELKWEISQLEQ

[38] = target: T38, O6-bS; experiment: two-hybrid library CCNG1
T38 chain: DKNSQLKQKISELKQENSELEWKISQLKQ

[39] = target: T39, O7-bS; experiment: two-hybrid library CCNG1
T39 chain: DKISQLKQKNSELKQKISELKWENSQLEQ

[40] = target: T40, O8-bS; experiment: two-hybrid library CCNG1
T40 chain: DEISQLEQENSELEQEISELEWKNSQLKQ

[41] = target: T41, P8A-bN; experiment: two-hybrid library CCNG1
T41 chain: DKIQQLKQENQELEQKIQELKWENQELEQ

[42] = target: T42, 4H264-bA; experiment: two-hybrid library CCNG1
T42 chain: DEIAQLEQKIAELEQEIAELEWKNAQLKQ

[43] = target: T43, 4H2760-bA; experiment: two-hybrid library CCNG1
T43 chain: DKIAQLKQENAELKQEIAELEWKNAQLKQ

[44] = target: T44, 4H2859-bA; experiment: two-hybrid library CCNG1
T44 chain: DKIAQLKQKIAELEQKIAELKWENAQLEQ

[45] = target: T45, 4H2931-bA; experiment: two-hybrid library CCNG1
T45 chain: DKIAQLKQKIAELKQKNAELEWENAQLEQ

[46] = target: T46, 4H3041-bA; experiment: two-hybrid library CCNG1
T46 chain: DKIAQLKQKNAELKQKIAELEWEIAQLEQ

[47] = target: T47, 4H3297-bA; experiment: two-hybrid library CCNG1
T47 chain: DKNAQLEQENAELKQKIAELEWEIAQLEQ

[48] = target: T48, 4H3364-bA; experiment: two-hybrid library CCNG1
T48 chain: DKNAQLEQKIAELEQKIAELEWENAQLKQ

[49] = target: T49, 4H3381-bA; experiment: two-hybrid library CCNG1
T49 chain: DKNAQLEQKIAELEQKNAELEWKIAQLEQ

[50] = target: T50, 4H3427-bA; experiment: two-hybrid library CCNG1
T50 chain: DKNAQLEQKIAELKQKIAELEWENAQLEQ

[51] = target: T51, 4H349-bA; experiment: two-hybrid library CCNG1
T51 chain: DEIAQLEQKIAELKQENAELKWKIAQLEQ

[52] = target: T52, 4H56-bA; experiment: two-hybrid library CCNG1
T52 chain: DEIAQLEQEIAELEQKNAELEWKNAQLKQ

[53] = target: T53, 4H730-bA; experiment: two-hybrid library CCNG1
T53 chain: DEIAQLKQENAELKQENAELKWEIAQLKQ

[54] = target: T54, 4H796-bA; experiment: two-hybrid library CCNG1
T54 chain: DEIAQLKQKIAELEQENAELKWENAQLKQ

[55] = target: T55, 4H949-bA; experiment: two-hybrid library CCNG1
T55 chain: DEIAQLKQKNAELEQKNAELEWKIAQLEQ

[56] = target: T56, P5SH; experiment: two-hybrid library CCNG1
T56 chain: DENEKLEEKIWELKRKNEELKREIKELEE

[57] = target: T57, P1bH1; experiment: two-hybrid library CCNG1
T57 chain: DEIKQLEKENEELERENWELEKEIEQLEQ

[58] = target: T58, P2bH1; experiment: two-hybrid library CCNG1
T58 chain: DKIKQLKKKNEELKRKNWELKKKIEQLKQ

[59] = target: T59, P3bH1; experiment: two-hybrid library CCNG1
T59 chain: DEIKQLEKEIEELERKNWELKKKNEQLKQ

[60] = target: T60, P4bH1; experiment: two-hybrid library CCNG1
T60 chain: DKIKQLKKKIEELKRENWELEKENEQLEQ

[61] = target: T61, P5bH1; experiment: two-hybrid library CCNG1
T61 chain: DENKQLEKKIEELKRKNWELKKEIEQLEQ

[62] = target: T62, P6bH1; experiment: two-hybrid library CCNG1
T62 chain: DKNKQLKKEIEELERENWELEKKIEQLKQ

[63] = target: T63, P7bH1; experiment: two-hybrid library CCNG1
T63 chain: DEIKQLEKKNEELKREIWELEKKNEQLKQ

[64] = target: T64, P8bH1; experiment: two-hybrid library CCNG1
T64 chain: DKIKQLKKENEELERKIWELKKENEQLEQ

[65] = target: T65, P9bH1; experiment: two-hybrid library CCNG1
T65 chain: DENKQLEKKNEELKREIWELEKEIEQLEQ

## DKIAALEAENAALKAKNAALEAEIAALKG [4H2290-AA]
[1]
  interaction score: 2
[2]
  interaction score: -1.32
[3]
  interaction score: -1.34
[4]
  interaction score: -1.24
[5]
  interaction score: -1.57
[6]
  interaction score: -1.79
[7]
  interaction score: -1.62
[8]
  interaction score: -1.41
[9]
  interaction score: -1.4
[10]
  interaction score: -1.58
[11]
  interaction score: -1.33
[12]
  interaction score: -1.42
[13]
  interaction score: -1.44
[14]
  interaction score: -1.59
[15]
  interaction score: -1.33
[16]
  interaction score: -1.53
[17]
  interaction score: -1.86
[18]
  interaction score: -1.54
[19]
  interaction score: -1.57
[20]
  interaction score: -1.64
[21]
  interaction score: -1.59
[22]
  interaction score: -1.24
[23]
  interaction score: -1.68

## DENQQLEQKIQELKQKNQELKWKIQELKQ [4H1406-bN]
[24]
  interaction score: -0.553
[25]
  interaction score: 0.875
[26]
  interaction score: 0.142
[27]
  interaction score: 1.53
[28]
  interaction score: 0.347
[29]
  interaction score: -1.69
[30]
  interaction score: -2.09
[31]
  interaction score: -1.96

## DENSQLEQEISELEQENSELEWKISQLKQ [O14-bS]
[32]
  interaction score: -1.18
[33]
  interaction score: 0.936
[34]
  interaction score: -1.15
[35]
  interaction score: -0.0513
[36]
  interaction score: 0.126
[37]
  interaction score: -0.394
[38]
  interaction score: 0.332
[39]
  interaction score: -0.1
[40]
  interaction score: -2.39
[41]
  interaction score: -0.473

## DEIAQLEQKIAELEQEIAELEWKNAQLKQ [4H264-bA]
[42]
  interaction score: 1.38
[43]
  interaction score: -0.475
[44]
  interaction score: 1.6
[45]
  interaction score: 2.07
[46]
  interaction score: 2.21
[47]
  interaction score: 0.896
[48]
  interaction score: 0.942
[49]
  interaction score: 0.311
[50]
  interaction score: 1.19
[51]
  interaction score: -0.396
[52]
  interaction score: -0.504
[53]
  interaction score: -1.63
[54]
  interaction score: -0.521
[31]
  interaction score: -0.419
[55]
  interaction score: -0.323
[40]
  interaction score: -1.91
[56]
  interaction score: 1.79

## DEIKQLEKENEELERENWELEKEIEQLEQ [P1bH1]
[57]
  interaction score: -0.717
[58]
  interaction score: 1.17
[59]
  interaction score: -1.08
[60]
  interaction score: -1.38
[61]
  interaction score: -1.15
[62]
  interaction score: -1.2
[63]
  interaction score: -0.809
[64]
  interaction score: -0.757
[65]
  interaction score: -0.87
